Test results from patent US20150050283A1 (TORAY INDUSTRIES, published 2015).

Columns and labels:
[1] = biological target: T1, partial CAPRIN-1 polypeptide consisting of the amino acid sequence of SEQ ID NO: 5 (human); assay: ELISA on immobilized peptides, antibody at 0.1 µg/mL
T1 construct: Synthetic peptide immobilized on ELISA plates
T1 peptide: ATQVPLVSSTSEGYTA
Method: Each peptide was dissolved at a concentration of 30 μg/ml in a 0.1 M sodium carbonate buffer solution (pH 9.6). […] The solution in each well was discarded, and 10 mM ethanolamine/0.1 M sodium carbonate buffer solution (PH 9.6) was added thereto at a concentration of 200 μL/well and left standing at room temperature for 1 hour. Then, the solution in each well was discarded, and each well was washed twice with PBS containing 0.5% Tween 20 (PBST) to prepare a peptide-immobilized plate. For verification, CAPRIN-1 proteins were immobilized on wells of this plate to prepare another plate according to the method described above. […] After shaking at room temperature for 1 hour, the solution in each well was discarded, and each well was washed three times with PBST. Next, a secondary antibody solution containing HRP-labeled anti-rabbit IgG antibodies diluted 3000- to 4000-fold with PBST was added thereto at a concentration of 50 μL/well. Then, the solution in each well was discarded, and each well was washed six times with PBST. A TMB substrate solution (manufactured by Thermo Fisher Scientific Inc.) was added thereto at a concentration of 100 μL/well and left standing for 15 to 30 minutes to cause color reaction. […] The absorbance was measured at 450 nm and 595 nm using an absorption spectrometer.

[2] = biological target: T1, partial CAPRIN-1 polypeptide consisting …; assay: ELISA as in Example 9(1), purified antibody
[3] = biological target: T2, human CAPRIN-1 protein having the amino acid sequence of SEQ ID NO: 2 (human, UniProt Q14444 1-709, limits assumed); assay: ELISA as in Example 9(3)
T2 construct: also called CAPRIN-1 proteins
T2 sequence: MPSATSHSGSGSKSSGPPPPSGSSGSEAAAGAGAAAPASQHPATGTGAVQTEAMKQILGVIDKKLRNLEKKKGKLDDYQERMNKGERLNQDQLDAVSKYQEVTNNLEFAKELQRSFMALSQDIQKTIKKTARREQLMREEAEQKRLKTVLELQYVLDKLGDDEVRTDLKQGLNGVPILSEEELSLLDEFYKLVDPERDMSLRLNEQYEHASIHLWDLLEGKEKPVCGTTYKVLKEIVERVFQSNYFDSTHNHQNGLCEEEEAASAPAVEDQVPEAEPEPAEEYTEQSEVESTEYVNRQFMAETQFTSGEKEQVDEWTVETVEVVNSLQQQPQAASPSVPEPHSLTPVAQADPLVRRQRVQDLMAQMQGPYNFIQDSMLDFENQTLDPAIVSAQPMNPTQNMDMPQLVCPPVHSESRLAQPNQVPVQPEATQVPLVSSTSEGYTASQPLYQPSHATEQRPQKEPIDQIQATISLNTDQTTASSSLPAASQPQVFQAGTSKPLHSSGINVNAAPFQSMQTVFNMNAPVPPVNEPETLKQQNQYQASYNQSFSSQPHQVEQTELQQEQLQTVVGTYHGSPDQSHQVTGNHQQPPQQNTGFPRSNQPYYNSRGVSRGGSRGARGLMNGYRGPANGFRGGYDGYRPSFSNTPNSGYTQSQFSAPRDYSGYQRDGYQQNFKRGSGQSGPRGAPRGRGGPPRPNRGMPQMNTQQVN

[4] = biological target: T1, partial CAPRIN-1 polypeptide consisting …; assay: peptide ELISA as in Example 9(3)
[5] = biological target: T3, CAPRIN-1 protein on the cell membrane surface of human cancer cell lines (human, UniProt Q14444 2-709); assay: flow cytometry on human cancer cell lines as in Example 9(3)
T3 construct: whole, on cells; Endogenous CAPRIN-1 on human cancer cell lines (MDA-MB-231V, QG56, DLD-1, Capan-2 and others); The cells were not transfected; also called CAPRIN-1 on cancer cell surface
T3 sequence (looked up): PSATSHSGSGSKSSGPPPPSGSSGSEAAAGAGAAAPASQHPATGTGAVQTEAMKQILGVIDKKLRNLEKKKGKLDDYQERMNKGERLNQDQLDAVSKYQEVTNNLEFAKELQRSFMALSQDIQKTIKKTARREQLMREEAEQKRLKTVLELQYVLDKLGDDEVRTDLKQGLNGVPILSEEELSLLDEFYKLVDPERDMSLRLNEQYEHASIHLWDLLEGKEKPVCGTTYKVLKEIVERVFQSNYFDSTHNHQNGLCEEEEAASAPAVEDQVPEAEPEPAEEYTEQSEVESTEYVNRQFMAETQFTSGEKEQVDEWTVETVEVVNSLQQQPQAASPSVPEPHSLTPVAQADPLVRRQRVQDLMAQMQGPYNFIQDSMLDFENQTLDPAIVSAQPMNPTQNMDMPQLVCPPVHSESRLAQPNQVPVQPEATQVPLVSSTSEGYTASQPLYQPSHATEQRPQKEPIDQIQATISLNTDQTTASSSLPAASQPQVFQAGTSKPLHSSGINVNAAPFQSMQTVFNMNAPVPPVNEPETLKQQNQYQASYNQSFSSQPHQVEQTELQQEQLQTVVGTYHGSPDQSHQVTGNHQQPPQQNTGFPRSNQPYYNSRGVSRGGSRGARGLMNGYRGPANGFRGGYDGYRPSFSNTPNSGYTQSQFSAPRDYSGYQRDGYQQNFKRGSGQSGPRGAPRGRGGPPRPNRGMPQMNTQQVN

Binder | binding result [1] | binding result [2] | binding result [3] | binding result [4] | binding result [5]
rabbit anti-CAPRIN-1 monoclonal antibody #1 (antibody, V domains shown, Rabbit hybridoma monoclonal antibody; also called rabbit anti-CAPRIN-1 antibody #1) VH: QSLEESGGDLVKPGASLTLTCTASGFSFSGSYYMSWVRQAPGKGLEWIAYIYIGDGVTAYANWAKGRFTISKASSTTVTLQMTSLTAADTATYFCARGNKLWGPGTLVTVSS VL: DVVMTQTPASVEAAVGGTVTIKCQASQSISSYLAWYQQKPGQPPKRLIYDASNLDSGVPSRFKGSGSGTDFTITISDLECADAATYYCQCTAVSSATIYGNAFGGGTEVVVK | binds | – | – | – | –
human-rabbit chimeric anti-CAPRIN-1 antibody #1 (antibody, human IgG1, V domains shown, also called human-rabbit chimeric anti-CAPRIN-1 monoclonal antibody #1) VH: QSLEESGGDLVKPGASLTLTCTASGFSFSGSYYMSWVRQAPGKGLEWIAYIYIGDGVTAYANWAKGRFTISKASSTTVTLQMTSLTAADTATYFCARGNKLWGPGTLVTVSS VL: DVVMTQTPASVEAAVGGTVTIKCQASQSISSYLAWYQQKPGQPPKRLIYDASNLDSGVPSRFKGSGSGTDFTITISDLECADAATYYCQCTAVSSATIYGNAFGGGTEVVVK | – | binds | – | – | –
humanized anti-CAPRIN-1 antibody #2 (antibody, V domains shown, Human IgG1 heavy chain constant region and 'human IgG1 light chain constant region'; also called humanized rabbit anti-CAPRIN-1 monoclonal antibody #2; humanized anti-CAPRIN-1 monoclonal antibody #2) VH: EVQLVESGGGLVQPGGSLRLSCAASGFSFSGSYYMSWVRQAPGKGLEWIAYIYIGDGVTAYANWAKGRFTISKDNSKNTLYLQMNSLRAEDTAVYFCARGNKLWGPGTLVTVSS VL: DIQMTQSPSSLSASVGDRVTIKCQASQSISSYLAWYQQKPGKAPKRLIYDASNLDSGVPSRFSGSGSGTDFTFTISSLQPEDIATYYCQCTAVSSATIYGNAFGGGTKVEIK | – | – | binds | binds | binds

Second part, the binder after the results:

binding result [1] | binding result [2] | binding result [3] | binding result [4] | binding result [5] | Binder
– | – | binds | binds | binds | humanized anti-CAPRIN-1 antibody #3 (antibody, V domains shown, Human IgG1 heavy chain constant region and 'human IgG1 light chain constant region'; also called humanized rabbit anti-CAPRIN-1 monoclonal antibody #3; humanized anti-CAPRIN-1 monoclonal antibody #3) VH: EVQLVESGGGLVQPGGSLRLSCAASGFSFSGSYYMSWVRQAPGKGLEWIAYIYIGDGVTAYANWAKGRFTISRDNSKNTLYLQMNSLRAEDTAVYYCARGNKLWGPGTLVTVSS VL: DIQMTQSPSSLSASVGDRVTIKCQASQSISSYLAWYQQKPGKAPKRLIYDASNLDSGVPSRFSGSGSGTDFTFTISSLQPEDIATYYCQCTAVSSATIYGNAFGGGTKVEIK
– | – | binds | binds | binds | humanized anti-CAPRIN-1 antibody #1 (antibody, V domains shown, Human IgG1 heavy chain constant region and 'human IgG1 light chain constant region'; also called humanized rabbit anti-CAPRIN-1 monoclonal antibody #1; humanized anti-CAPRIN-1 monoclonal antibody #1) VH: QVQLVESGGGLVKPGGSLRLSCAASGFSFSGSYYMSWVRQAPGKGLEWIAYIYIGDGVTAYANWAKGRFTISRDNAKNSLYLQMNSLRAEDTAVYFCARGNRLWGQGTLVTVSS VL: DIQMTQSPSSLSAAVGDRVTIKCQASQSISSYLAWYQQKPGKPPKRLIYDASNLDSGVPSRFSGSGSGTDFTFTISSLQPEDIATYYCQCTAVSSATIYGNAFGGGTKVEIK
